Measurements from the DeepSol protein solubility set.

Test: soluble on expression in E. coli; label from the status in PepcDB or PDB records

Sequence | soluble on expression in E. coli
MRSATDLLDELNAVDESARIEAKRASDMGKSVMETVIAFANEPGLDGGYLLLGVDWAINDKGDTVYRPVGLPDPDKVQRDLASQCASMLNVALRPEMQLEQVGGKTLLVVYVPEADVTHKPIYKKATGLPGGAYRRIGSSDQRCVDEDLWVLRGESQPLHGPDSSILSDARADDFDPTAIAAYRRERARINPQAEELDYGDEDMLEALGALRRVDGVLQPTLAGIVLFGKPLALRRLLPMVRIDYIRVPGNEWVEDPENRFQSIDIRKPLMLALPLAEASIIDELPKGFRLPEGQLQSVQEPILPRKVIREALANAAMHRNYTLHSPTQIIRYSNRIEIRNVGYSLKEPAQLGLPGSRLRNPAIAAVLHDLHLAEAKGTGIRAMRRLAADAGLPLPEFHSDRQANEFKLTLFLHNLLTEEDHTWLRNYAGSTLGPDEAKVLIYVRATGAVDNTACRDFCGSDTLAASMVLRRLRDRGLLEKRGAGSRTYYTLAGNEPRPTLESAQSELPLDVPADTPPVGQPQPAEAVAGQQACNPQLATLPPELATLLATLQGRISSEALRDGIRRLCQWAPQSGDQLATLLGKDRDYLRNKHLIPMVRDGQLRFRYPESAKHPHQAYVAPEDKRNDLEHHHHHH | soluble
MRSKLNQYNQKRNFTRTLEPEGITEMPQEGLRFVVQHHLARRDHYDLRLEWDGAMLSWAVPKGPSYNTWDKRLAVQVEDHPLEYRHFEGTIPKGEYGGGVVMLWDEGFWEPYVDVDGGLHEGMLKFVLKGRRLKGRWALVRMKGKAGDKKDNWLLLKEKDDYVQTADGISQFTTSLEHHHHHH | not soluble
MRTAEIREKFLSFFEGKGHLRLPSFSLIPEDDPSLLFTSAGMAPLKPYFLGAKPIFGGREWRRVTTCQECLRVGDIENVGRTSRHNTYFEMLGNFSFGDYFKKEAILWAWEFLTEHLKLDPGRLWVTVFEDDDEAYEIWRDLVGVPEERIGRFGEDENYWPGGAITHGPNGPSGPCSEIFYDRGPAYGTPDETGPNTGSGDRFVEIWNLVFTQYDRQGPIPGPGILKPLPQKNIDTGMGLYRVAAILQDVEDFYRTDTFFPIIQEVARMSGRPYEGKTSVSHRVIADHVRAVVAALSDGATFSNTGRGYVIRRLLRRALRHGYLLGLSDPFLHRLAPLVAELLGDFYPEMRENLPAVEKQIRLEEERFLETLEGGLKRLDALLSGLKPGEVLPGKEAFRLYDTYGFPLDLTVEIAAERGYGVDTEGFQKAMEEQQSRSRAAMAFEREIFKKGAQVLEELYAERGATEFLGYNALEAEAEVLALLAGDQSLLEAGPGTEVQVVLDKTPFYAEGGGQIGDFGLLEWPGGRARVETTRKTERGIFLHKARVEEGVLRVGERVRAVVDPRRRDTERNHTATHLLHAALRAVLGPHVRQAGSLVAPDRLRFDFTHPEPLKPEELERVELLVNRWIMADFPVTWRYMPLEEARKEGAMALFGEKYGEVVRVVRVEGSPLEGLESKELCGGCHVRRTGEIGAFLIRSEEAVSAGVRRIEAVTGEEAIRFARGSLNRLKALAERLEVGEAALEERLEKLLAELKEKEREVESLKARLVQAALGGGGGASLEEKGGLRWTVAELPGLDAKALRQAADDLVARGADVALVLSGGQAVLKLSPKAQGMGLEAGALFRALAEKAGGRGGGKGALAQGGGLDPRKAREALPGLLP | soluble
MRTLRIGIVGLGGIAQKAWLPVLTNTAGWTLQGAWSPSRDKALRICESWRIPYVDSLANLASSCDAVFVHSSTASHYAVVSELLNAGVHVCVDKPLAENLRDAERLVALAAQKKLTLMVGFNRRFAPLYRELKTRLGTAASLRMDKHRTDSVGPHDLRFTLLDDYLHVVDTALWLAGGEARLASGTLLTSESGEMCYAEHHFSADKLQITTSMHRRAGSQRESVQAVTDGGLYDVTDMREWREERGQGILIKPIPSWQTTLEQRGFVGCARHFIDCVQNQTVPETAGEQAILAQRVVEALWRDAISE | not soluble
MRTQWPSPAKLNLFLYITGQRADGYHTLQTLFQFLDYGDTISIELRDDGDIRLLTPVEGVEHEDNLIVRAARLLMKTAADSGRLPTGSGANISIDKRLPMGGGLGGGSSNAATVLVALNHLWQCGLSMDELAEMGLTLGADVPVFVRGHAAFAEGVGEILTPVDPPEKWYLVAHPGVSIPTPVIFKDPELPRNTPKRSIETLLKCEFSNDCEVIARKRFREVDAVLSWLLEYAPSRLTGTGACVFAEFDTESEARQVLEQAPEWLNGFVAKGVNLSPLHRAML | soluble
MRVLGIETSCDETGIAVYDDKAGLLANQLYSQVKLHADYGGVVPELASRDHVRKTVPLIQAALKEANLSAKDIDAVAYTAGPGLVGALLVGATIGRALAFAWGVPAVPVHHMEGHLLAPMLEENAPEFPFVALLVSGGHTQLISVTGIGEYLLLGESVDDAAGEAFDKTAKLLGLDYPGGPMLSRMAQQGTVGRFTFPRPMTDRPGLDFSFSGLKTFAANTIRANGDDDQTRADIARAFEDAVVDTLAIKSKRALDQTGFKRLVIAGGVSANQTLRLKLADMMQKRGGEVFYARPEFCTDNGAMIAYAGMVRLRSNLNSELSVSVRPRWPLSELPKV | not soluble
MRVLISPWGDFRKWKVAKYTFSGKSLESRSTLPIMVDVIRPQETIIIVPDTLSSDFSSQESMWNSVKDEVKEFTNQLGVEDVKIIVVPGSGSFSNGSFFGNPMDAYMFLLYELAKELPLEIKEVHLDVTHGLNYLTFFTVRVVQELLGILSIRKGVVLKTYSSDPFVDGSVRHLRVNLIEEATIDPKPLSEFLEGKFLVNYSMDRVEFGEIARRLKAKELDLGRINSWIASLKHGLPLVFTTMYPQEGEVEGVLEDVVAKFLEGFNVGEGKVVRSISLGKDFGSLAKLYFQLRVLKDLKEMYNLPKDEASVEELLKISEEIFTGRIKHSTKVELDNVANRVEKTEGWVKLSEFFKNANPQVDPRNFFAHAGLEANLVEVKRNGELYLRYTKGKVRWGGKEEKAEKVIREILTSRRWF | soluble
MRVVAEDLWFPEGPVWVGDGSLLVVEIRRKTLTRIFPDGRKHIVAELGGGPNGAAMGPDGYCYVANNGGFAFRQREDGRWVTSGTPEDYRTGRIERVDIETGKVEVLYDRIDGRNIRGPNDLVIDAAGGIWFTDPGKTRHRDWDRGSICYATIDGSHIEEKVFPIHKPNGIGLSPDGRTLYVAETETARLWAWDLAGPGRLAAPAAASPASPHGSRLAYASPVYQRFDSLAVQADGAVAIGTLDRGGITTVRPDGSASFVPVAGDTHITNLCFGGEGMRKAYVTQSYAGRLVEIDWASPGLRLFEILEHHHHHH | not soluble
MRVYAIADPHLSRVHPKPMTVFGAGWEGHPEAFFRGWREVVGEEDLVVVPGDISWAMRLSEAIPDLLDLARLPGRKVLLKGNHDYWWPSISRLRAALPPGMYALQNDALVVDGVAVAGTRGWQYPPQTPEDEKVFAREVERLKLSLKALEGQPYRHLVVAFHFPPFGPGGEASPLLELAAGAHPQAIVYGHLHGADPAKLPQSYRGIPLHLVAADALRFRPKLVLEAD | soluble
MRVYDMHVHLHEYSDREVEEILDADKSLVVVAVSDDLESAWRTLDLWHTFGGRVVPCLGFHPWNVREGRVWEAWEVLRLAYRYGVPCLGEVGLDRRFVDEYTWRVQNEVFDAFVQLAEDMGVMLNIHAPDAWKHVAHRIGWTSRARFMYHWYTGPATLPRALPEGRVWFSINSAIRVQEKSVRVAREIPLRSLVVESDGPYNYRGLRLSPLMVRETVKLVAEARGEDPGRLMEAISLNSERLLGLL | not soluble
MRWKRTLQLLDVHCEGEIGRVVTGGAPKIPGNTVAEQLHWMNTDPQGEALRRFLTLEPRGTPMGSVDLLLPPKHPDAHAAFVILQPDQAHASSGSNSICATTALLESGMVEMQEPETVIILETAAGLVKATATCRDGRCEKVKLTMVPSFVHELDVSIDTPEWGRVTMDISYGGIFYALVDVRQIGLTIEKANAAKLVAAGMTLKDLVNREMTVVHPEIPAISGVAYVMFRDVDADGSIRTCTTMWPGRADRSPCGTGNSANLATLYARGKVKVGDEYKSRSIIGSEFDVGLSAVTEVAGRPAVIPTIAGRGFTFGLHQVGLDPFDPLGDGFAMTDVWGPEAGNILEHHHHHH | soluble
MRYAAYYAPRPDSALWRAGCEWLGYDAAGGAQLPRPDVEGVEAGELAGLTREAARYGWHATLKAPFALRPGVGEDALLLQTSMLARRFQPFALSLQVGWLGDFLALRPAGPCAELDELAAACSVSLEGLADRHAPLRPREGLDPRQQALYRRWGYPYVFEQFRFHLTLSDRLDRESAAAVLIERGARRHFAGLLQQVAVAGVTLFVEREQGGPFRYLAYCGFNGEVARHGR | not soluble
MRYEALRLLCFFDLPMESKDEKRIYRNFRKELISNGFEMLQFSVYYRTCPNRSFANKFYKKLKMSNLPAGNVRLLAVTEKQFSEMTLIIGGKTKQEEIVSDNKLVIILEHHHHHH | soluble
MRYLIATAVLVAVVLVGWPAAGAPPSCAGLGGTVQAGQICHVHASGPKYMLDMTFPVDYPDQQALTDYITQNRDGFVNVAQGSPLRDQPYQMDATSEQHSSGQPPQATRSVVLKFFQDLGGAHPSTWYKAFNYNLATSQPITFDTLFVPGTTPLDSIYPIVQRELARQTGFGAAILPSTGLDPAHYQNFAITDDSLIFYFAQGELLPSFVGACQAQVPRSAIPPLAI | soluble
MRYTVALTGGIGSGKSTVADAFADLGITVIDADIIARQMVEPGQPALNAIAEHFGSELIAADGTLRRRALRERIFSHPEEKAWLNALLHPLIQQETQRQFQQATSPYVLWVVPLLVENRLYQKANRVLVVDVTPETQLIRTMQRDDVTREHVEHILAAQATREARLAVADDVIDNNGAPDAIASDVARLHASYLKLASQFVSQEKP | not soluble
MSADFEQLVAQFERFQARMTRVEQQFAGVDDMRQRLAELEVAATSADRSVTVVAGPSGAILDIRLTEQAVRKPAHALAGELMSTLRKAVAEAARRQAGIVDGALGEAFGDDLDLTEQVLETQAELFGMSKEELRAVTAEEATTAPQQGPPAPPARPTPPSPGQPQGGPVPGRPEPGQARTGGPQPGRPHSGRQQSGQPQPGRPQSGQPQPGRPQSGQPQPGKSQPGTSQPGQARPGQSGPAQRPQGGEPQQEDFSERNFMKDDWKQSGSKAQPPGPGGKQDDRFLNLYDDEDGR | not soluble
MSAEASGPAAAAAPSLEAPKPSGLEPGPAAYGLKPLTPNSKYVKLNVGGSLHYTTLRTLTGQDTMLKAMFSGRVEVLTDAGGWVLIDRSGRHFGTILNYLRDGSVPLPESTRELGELLGEARYYLVQGLIEDCQLALQQKRETLSPLCLIPMVTSPREEQQLLASTSKPVVKLLHNRSNNKYSYTSTSDDNLLKNIELFDKLALRFHGRLLFLKDVLGDEICCWSFYGQGRKIAEVCCTSIVYATEKKQTKVEFPEARIFEETLNILIYETPRGPDPALLEATGGAAGAGGAGRGEDEENREHRVRRIHVRRHITHDERPHGQQIVFKD | soluble
MSAEASGPAAAAAPSLEAPKPSGLEPGPAAYGLKPLTPNSKYVKLNVGGSLHYTTLRTLTGQDTMLKAMFSGRVEVLTDAGGWVLIDRSGRHFGTILNYLRDGSVPLPESTRELGELLGEARYYLVQGLIEDCQLALQQKRETLSPLCLIPMVTSPREEQQLLASTSKPVVKLLHNRSNNKYSYTSTSDDNLLKNIELFDKLALRFHGRLLFLKDVLGDEICCWSFYGQGRKIAEVCCTSIVYATEKKQTKVEFPEARIFEETLNILIYETPRGPDPALLEATGGAAGAGGAGRGEDEENREHRVRRIHVRRHITHDERPHGQQIVFKDLEHHHHHH | not soluble
MSAGPIVERNQDATIYVGGLDEKVSESILWELMVQAGPVVSVNMPKDRVTANHQGFGFVEFMGEEDADYAIKILNMIKLYGKPIKVNKASAHEKNMDVGANIFVGNLDPEVDEKLLYDTFSAFGVILQVPKIMRDVDSGTSKGFAFINFASFEASDTALEAMNGQFLCNRAITVSYAFKRDSKGERHGTAAERMLAAQNPLFPKDRPHQVFSDVPLGVPANTPLAMPGVHAAIAAHATGRPGYQPPPLMGMAQSGYQGQYPPVPPPPPSVTPMPPPMPPTPGMTPRPPPPPSSGMWPPPPPPPPGRTPGPPGMPGMPPPPPPSRFGPPGMGGMPPPPPPGMRYPGGMPPPPPPRYPSAGPGMYPPPPPSRPPAPPSGHGMIPPPPPPS | not soluble
